T1: human LGR5 ectodomain (hLGR5ecto, R32-G557), immobilised for SPR (human, UniProt O75473 32-557)
T1 chain: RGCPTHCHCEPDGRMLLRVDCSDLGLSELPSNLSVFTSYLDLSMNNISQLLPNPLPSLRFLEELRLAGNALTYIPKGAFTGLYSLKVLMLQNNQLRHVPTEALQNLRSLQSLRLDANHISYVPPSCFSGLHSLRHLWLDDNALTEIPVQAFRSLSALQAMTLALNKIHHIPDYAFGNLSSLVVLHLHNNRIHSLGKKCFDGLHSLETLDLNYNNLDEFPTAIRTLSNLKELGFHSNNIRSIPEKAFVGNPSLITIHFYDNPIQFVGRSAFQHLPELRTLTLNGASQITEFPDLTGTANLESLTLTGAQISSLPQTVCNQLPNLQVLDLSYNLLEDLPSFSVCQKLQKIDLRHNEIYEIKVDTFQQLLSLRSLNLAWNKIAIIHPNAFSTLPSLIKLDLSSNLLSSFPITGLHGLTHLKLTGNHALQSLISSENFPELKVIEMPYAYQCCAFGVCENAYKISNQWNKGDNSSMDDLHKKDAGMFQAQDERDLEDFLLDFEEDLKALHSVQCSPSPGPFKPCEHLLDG

T2: mZNRF3ecto M98T (Mus musculus)
T2 chain: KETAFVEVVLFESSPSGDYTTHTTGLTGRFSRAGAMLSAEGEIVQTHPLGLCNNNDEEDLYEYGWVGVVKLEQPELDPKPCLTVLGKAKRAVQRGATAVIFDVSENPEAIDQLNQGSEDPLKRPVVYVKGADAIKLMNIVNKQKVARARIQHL

T3: mouse Rspo2 Fu1–Fu2 (mRspo2Fu1–Fu2, N37 or I39-G144), His10
T3 chain: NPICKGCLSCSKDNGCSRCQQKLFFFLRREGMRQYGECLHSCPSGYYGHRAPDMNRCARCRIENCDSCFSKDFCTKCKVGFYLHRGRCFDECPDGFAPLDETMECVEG

T4: human LGR5 ectodomain (hLGR5ecto, R32-G557), immobilised for SPR (human, UniProt O75473 32-557)
T4 construct: LGR5 ectodomain, human, residues R32-G557; the methods describe biotinylated variants on streptavidin
T4 sequence (looked up): T1 chain

T5: preformed hLGR5ecto,lr × mRspo2 Fu1–Fu2 complex, O75473
T5 chain 1: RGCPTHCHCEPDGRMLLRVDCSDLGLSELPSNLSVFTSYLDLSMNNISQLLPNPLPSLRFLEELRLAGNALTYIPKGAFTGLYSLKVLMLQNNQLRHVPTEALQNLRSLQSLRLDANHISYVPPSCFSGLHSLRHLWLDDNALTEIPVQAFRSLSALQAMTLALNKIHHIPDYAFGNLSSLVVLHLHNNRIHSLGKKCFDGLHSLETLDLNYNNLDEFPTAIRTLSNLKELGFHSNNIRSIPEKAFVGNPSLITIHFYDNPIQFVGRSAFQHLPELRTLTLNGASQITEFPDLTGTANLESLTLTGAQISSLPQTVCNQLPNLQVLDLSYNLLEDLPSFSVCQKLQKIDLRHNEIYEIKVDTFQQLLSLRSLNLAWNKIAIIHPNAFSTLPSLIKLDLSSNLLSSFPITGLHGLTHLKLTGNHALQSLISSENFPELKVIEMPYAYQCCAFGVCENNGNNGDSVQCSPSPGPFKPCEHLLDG
T5 chain 2: T3 chain

T6: hRSPO3 (Homo sapiens (Human), UniProt Q9BXY4)
T6 chain: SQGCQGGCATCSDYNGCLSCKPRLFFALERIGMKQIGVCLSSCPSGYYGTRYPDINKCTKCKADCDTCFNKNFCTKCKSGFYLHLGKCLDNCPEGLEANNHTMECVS

T7: hRSPO1 (Homo sapiens (Human), UniProt Q2MKA7)
T7 chain: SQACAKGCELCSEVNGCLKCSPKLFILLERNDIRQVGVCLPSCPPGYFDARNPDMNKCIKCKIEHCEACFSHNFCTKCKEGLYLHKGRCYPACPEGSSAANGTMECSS

B1: mouse Rspo2 Fu1–Fu2 (mRspo2Fu1–Fu2, N37 or I39-G144), His10 (domain or fragment)
chain: T3 chain
B2: mouse Rspo2 Fu1–Fu2 (mRspo2Fu1–Fu2, N37 or I39-G144), His10 (domain or fragment)
chain: T3 chain
modifications: biotin at C-terminal BirA tag, immobilised; disulphide
B3: human RNF43 ectodomain (hRNF43ecto, Q44-L188), biotinylated, immobilised for SPR, Q68DV7 K108N (protein)
chain: QKAIIRVIPLKMDPTGKLNLTLEGVFAGVAEITPAEGKLMQSHPLYLCNASDDDNLEPGFISIVNLESPRRAPRPCLSLASKARMAGERGASAVLFDITEDRAAAEQLQQPLGLTWPVVLIWGNDAEKLMEFVYKNQKAHVRIEL
B4: human RNF43 ectodomain (hRNF43ecto, Q44-L188), biotinylated, immobilised for SPR, Q68DV7 L82S (protein)
chain: B3 chain with L39S, N65K
B5: mR42 (protein)
chain: TGLGGNCTGCVICSEENGCSTCQQRLFLFIRREGIRQYGKCVHDCPLGFFGIRGQEANRCKKCRIENCDSCFSKDFCTKCKVGFYLHRGRCFDECPDGFAPLDETMECVEG
modifications: Chimera read from its name as Rspo4 Fu1 + Rspo2 Fu2. Junction not printed: set by convention after the residue aligned with Rspo2 R95. Disulphides
B6: human Rspo3 Fu1–Fu2 (R32-H147), immobilised for SPR (domain or fragment, UniProt Q9BXY4 32-147, looked up)
chain: RMHPNVSQGCQGGCATCSDYNGCLSCKPRLFFALERIGMKQIGVCLSSCPSGYYGTRYPDINKCTKCKADCDTCFNKNFCTKCKSGFYLHLGKCLDNCPEGLEANNHTMECVSIVH
modifications: biotin at the C-terminal BirA recognition sequence
notes: R-spondin 3, human, Fu1-Fu2, residues R32-H147; also called hRspo3
B7: mouse Rspo4 Fu1–Fu2 (T29-Q136) (domain or fragment, UniProt Q8BJ73 29-136, looked up)
chain: TGLGGNCTGCVICSEENGCSTCQQRLFLFIRREGIRQYGKCVHDCPLGFFGIRGQEANRCKKCGATCESCFSQDFCIRCKRRFHLYKGKCLPSCPPGTLTHQSTRECQ
modifications: biotin at the C-terminal BirA recognition sequence (as immobilised ligand in Figure 4b)
notes: R-spondin 4, mouse, Fu1-Fu2, residues T29-Q136; also called mRspo4; mRspo4Fu1–Fu2
B8: mouse ZNRF3 ectodomain (K53-L205), biotinylated, immobilised for SPR, Q5SSZ7 E92N; E94T (protein)
chain: T2 chain with E40N, E42T, T46M
B9: mZNRF3ecto S90C (spontaneously disulphide cross-linked dimer) (domain or fragment, mouse, UniProt Q5SSZ7 53-205, looked up)
chain: T2 chain with S38C, T46M
notes: ZNRF3 ectodomain, mouse; limits K53-L205 as stated for mZNRF3ecto; probably as m1; also called S90C variant of mZNRF3_(ecto); predimerized mZNRF3_(ecto) S90C
B10: mouse ZNRF3 ectodomain (K53-L205), biotinylated, immobilised for SPR, Q5SSZ7 S90C (protein)
chain: T2 chain with S38C, T46M
B11: mouse ZNRF3 ectodomain (mZNRF3ecto, K53-L205) (domain or fragment, UniProt Q5SSZ7 53-205, looked up)
chain: T2 chain with T46M
notes: ZNRF3 ectodomain, mouse, residues K53-L205; pHLsec vector; used for crystals, ultracentrifugation and as SPR analyte; also called wt mZNRF3_(ecto); source: HEK293T, secreted, purified (HisTrap, gel filtration)
B12: human Rspo1 Fu1–Fu2 (I32-S143), immobilised for SPR (domain or fragment, UniProt Q2MKA7 32-143, looked up)
chain: ISAEGSQACAKGCELCSEVNGCLKCSPKLFILLERNDIRQVGVCLPSCPPGYFDARNPDMNKCIKCKIEHCEACFSHNFCTKCKEGLYLHKGRCYPACPEGSSAANGTMECS
modifications: biotin at the C-terminal BirA recognition sequence
notes: R-spondin 1, human, Fu1-Fu2, residues I32-S143; also called hRspo1

The target in series [1] is Rspo Fu1–Fu2 chimera: Fu1 of Rspo4 with Fu2 of a 'strong' Rspo (mouse | not stated). As to the kind of experiment: SPR; binding of Rspo Fu1–Fu2 chimeras to ZNRF3ecto. On the technique in general: SPR reads the build-up and loss of mass on a sensor chip optically.
Series [2] deals with T1, human LGR5 ectodomain (hLGR5ecto, …). Nature of the series: SPR.
Another series has as its target T2, mZNRF3ecto M98T. As to the kind of experiment: SPR.
Series [3] addresses T3, mouse Rspo2 Fu1–Fu2 (mRspo2Fu1–Fu2, N37 …). As to the kind of experiment: SPR. To be noted: chain shown with the change.
Series [4] deals with B11. As to the kind of experiment: SPR; mZNRF3ecto as analyte, biotinylated Rspo variants immobilised on streptavidin; equilibrium, 25 °C, 10 mM HEPES/NaOH pH 7.5, 150 mM NaCl, 0.005% Tween20; Biacore T200. To be noted: both partners purified.
Series [5] deals with T4, human LGR5 ectodomain (hLGR5ecto, …). As to the kind of experiment: SPR; binding of Rspo Fu1–Fu2 proteins and chimeras to hLGR5ecto; single dilution series. To be noted: both partners purified.
Series [6] concerns the target T5, preformed hLGR5ecto,lr × mRspo2 Fu1–Fu2 …. Nature of the series: SPR. To be noted: chain shown with the change.
Series [7] deals with the molecule itself. As to the kind of experiment: crystal structure; X-ray, sitting drop vapour diffusion; apo proteins and complexes in several crystal forms.
The target of the next series is T6, hRSPO3. Nature of the series: SPR equilibrium, RSPO Fu1-Fu2 immobilised.
The target in a further series is T7, hRSPO1. As to the kind of experiment: SPR equilibrium, RSPO Fu1-Fu2 immobilised.
Series [8] addresses T4, human LGR5 ectodomain (hLGR5ecto, …). Nature of the series: SPR; hLGR5ecto (R32-G557) immobilised; injections of 10 μM solutions step by step, and saturation with the preformed mZNRF3ecto × mRSPO2 complex (single dilution series). To be noted: both partners purified.

Changes are numbered by the printed parent chain. In names and notes the source's numbering stands.

In general, Kd refers to the constant that tells how readily two partners part at equilibrium. A lower Kd goes with a tighter complex. On to “mouse ZNRF3 ectodomain (mZNRF3ecto, K53-L205) (from UniProt Q5SSZ7 53-205) (domain or fragment)”, for which the dissociation constant Kd in series [1] is 3.6 µM. As to B1, the Kd in series [2] came to 14 nM. Turning to B2, binding with mZNRF3ecto M98T was put at a Kd of 1500 nM. As to B3, the Kd in [3] turned out to be 62 nM.

B4 yielded a dissociation constant Kd in series [3] of 78 nM. B5 showed a dissociation constant Kd in series [2] of 240 nM. For the molecule B6, the binding result in series [4] was “binds”.

Regarding B7, the Kd in series [2] was 73 nM; in [4] it was 300 µM. For the same molecule, the binding result in [5] is listed as “binds”. Take B8: the equilibrium dissociation constant (Kd) in series [6] stood at 3500 nM.

B9: the binding result in series [7] was “binds”. Consider B10, for which the Kd in [6] is 206 nM. Regarding B11, the results for the Kd with hRSPO3 and with hRSPO1 were 60 nM and 6.8 µM, respectively. Moreover, the binding result in [8] is “binds”.

In the case of B12, the binding result in series [4] is “binds”.

Values taken from article PMC3905715 (Nature Communications, 2013).
